Data reported in patent US7375080B1, “Immobilized lactoferrin (Im-LF) antimicrobial agents and uses thereof” (priority 1999, dated 2008).
Values joined by “and” are separate entries in the source; they are usually repeats but may differ in a detail not shown here. Equal entries are not always repeated.

Columns and labels:
[1] = tested on: E. coli serotype O157:H7 (strain ATCC43895); assay type: cell-based
[2] = tested on: E. coli O157:H7 strain ATCC43895; test: Microbial adhesion assay: detachment of 3H-thymidine labeled bacteria from beef tissue by wash; assay type: cell-based

B1: lactoferrin (protein, UniProt P24627 20-708, looked up)
Lactotransferrin: APRKNVRWCTISQPEWFKCRRWQWRMKKLGAPSITCVRRAFALECIRAIAEKKADAVTLDGGMVFEAGRDPYKLRPVAAEIYGTKESPQTHYYAVAVVKKGSNFQLDQLQGRKSCHTGLGRSAGWIIPMGILRPYLSWTESLEPLQGAVAKFFSASCVPCIDRQAYPNLCQLCKGEGENQCACSSREPYFGYSGAFKCLQDGAGDVAFVKETTVFENLPEKADRDQYELLCLNNSRAPVDAFKECHLAQVPSHAVVARSVDGKEDLIWKLLSKAQEKFGKNKSRSFQLFGSPPGQRDLLFKDSALGFLRIPSKVDSALYLGSRYLTTLKNLRETAEEVKARYTRVVWCAVGPEEQKKCQQWSQQSGQNVTCATASTTDDCIVLVLKGEADALNLDGGYIYTAGKCGLVPVLAENRKSSKHSSLDCVLRPTEGYLAVAVVKKANEGLTWNSLKDKKSCHTAVDRTAGWNIPMGLIVNQTGSCAFDEFFSQSCAPGADPKSRLCALCAGDDQGLDKCVPNSKEKYYGYTGAFRCLAEDVGDVAFVKNDTVWENTNGESTADWAKNLNREDFRLLCLDGTRKPVTEAQSCHLAVAPNHAVVSRSDRAAHVKQVLLHQQALFGKNGKNCPDKFCLFKSETKNLLFNDNTECLAKLGGRPTYEEYLGTEYVTAIANLKKCSTSPLLEACAFLTR
- GROWTH (%) [1]: 36%
- effect on growth of the E. coli [1]: reduced the growth
- % BACTERIAL CELLS DETACHED IN 1-MINUTE [2]: 90% and 85% and 78%
- bacterial detachment [2]: effective bacterial detachment
